First the molecules themselves.
T1: Tag1-LAG3 protein (UniProt P18627 23-450, limits assumed)
T1 construct: Kit reagent (Cisbio); Tag1 is not identified
T1 sequence (looked up): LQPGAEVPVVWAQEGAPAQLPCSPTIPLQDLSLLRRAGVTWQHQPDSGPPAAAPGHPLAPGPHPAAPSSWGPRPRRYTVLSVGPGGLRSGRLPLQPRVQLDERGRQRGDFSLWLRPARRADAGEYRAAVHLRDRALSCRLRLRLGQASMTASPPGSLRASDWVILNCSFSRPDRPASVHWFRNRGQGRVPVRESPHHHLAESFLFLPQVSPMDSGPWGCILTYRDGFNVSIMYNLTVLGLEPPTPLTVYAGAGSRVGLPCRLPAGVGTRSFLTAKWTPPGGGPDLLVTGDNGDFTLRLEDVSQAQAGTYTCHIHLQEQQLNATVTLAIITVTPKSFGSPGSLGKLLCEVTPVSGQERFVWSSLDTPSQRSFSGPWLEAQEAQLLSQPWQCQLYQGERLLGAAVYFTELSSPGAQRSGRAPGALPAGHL

T2: human LAG3 (Human LAG3/FGL1 TR-FRET Binding Assay, BPS Bioscience) (human, UniProt P18627 23-450, limits assumed)
T2 construct: Kit reagent (BPS Bioscience); construct not described
T2 sequence (looked up): T1 sequence (looked up)

B1: Peptide LG11 (peptide)
peptide: SAPWEPLHWPEDWWQGTGEW
notes: positive peptide control in the LAG3/MHC-II assay
B2: Peptide LG56 (peptide)
peptide: HIQNWSYWLNQDMMNQQVWKS
notes: peptide positive control in the LAG3/FGL1 assay

Consider 15 molecules from patent US20220033441A1 (LEIDOS, published 2022).

In one experiment the target is T1, Tag1-LAG3 protein. The experiment can be described thus: HTRF (TR-FRET) competition, inhibition of LAG3:MHC-II binding. The procedure: Anti-Tag1-Tb and anti-Tag2-XL665 antibodies were added and incubated for one hour, then simultaneous measurement of both […] cryptate and 665 nm acceptor emissions were read.
(In general: Time-resolved FRET reads energy transfer from a long-lived donor to a nearby acceptor.)
As usually defined, the IC50 is the point on the concentration scale where inhibition reaches its midpoint. Low values mean greater potency, high ones weaker potency. Consider EDKAPWWQLDMEFEFRLDRV (20-mer peptide) [peptide 68], for which the IC50 was found to be 2.94 µM.

QGSTSGWGFGAMYELTYDVY (20-mer peptide) [peptide 16] showed an IC50 of 0.22 µM.

In the case of RERGGDDFAQDDYYVTIFYR (20-mer peptide) [peptide 11], the IC50 was found to be 0.353 µM.

As to GGVAIFLALFGGMVSSWEWD (20-mer peptide) [peptide 141], the IC50 came to 6.69 µM.

For LAGHYHYLTAGSQDIYEYND (20-mer peptide) [peptide 62], the IC50 came out at 0.308 µM.

In turn, RTDRYTLSYIWTSDEWMLFD (20-mer peptide) [peptide 115] had an IC50 of 0.154 µM.

VFRMDWDEKEVRLYADDILL (20-mer peptide) [peptide 146] returned an IC50 of 0.199 µM.

Regarding RVPAPVKEQVQKQYPNAGAI (also called Low Activity Peptide) [Peptide 93], the IC50 came out at 63 µM.

SLPYSNIYIELDSGYWNSES (20-mer peptide) [peptide 155] registered an IC50 of 0.13 µM.

On to B1, for which the IC50 is 18.4 µM.

Another experiment deals with T2, human LAG3 (Human LAG3/FGL1 TR-FRET …). The experiment can be described thus: TR-FRET competition, inhibition of LAG3:FGL1 binding. The procedure:
Reaction mixes were incubated 1 hr at RT before development. After development, plate was read in a Tecan M1000 TR-FRET instrument.
Take EDKAPWWQLDMEFEFRLDRV (20-mer peptide) [peptide 68]: the IC50 is roughly 21 µM.

The molecule B2 displayed an IC50 of 14 µM.

Consider RTDRYTLSYIWTSDEWMLFD (20-mer peptide) [peptide 115], for which the IC50 came to 9.1 µM.

ITMWGYDTDEDDNLVIYLTD (20-mer peptide) [peptide 6] displayed a half-maximal inhibitory concentration (IC50) of 2.6 µM.

In turn, VFRMDWDEKEVRLYADDILL (20-mer peptide) [peptide 146] yielded an IC50 of 7.2 µM.

For the molecule TVDADGDLYFDMEEGVLVFM (20-mer peptide) [peptide 41], the 50% inhibitory concentration (IC50) stood at 9.2 µM.

AEFDHFDVGQTLDIASWDSY (20-mer peptide) [peptide 69] returned an IC50 of 3.3 µM.

In turn, EHNREQVLEVMYSFQVNDYF (20-mer peptide) [peptide 154] yielded an IC50 of 7.2 µM.
